Molecular target: T1, His-Lmo2795 (RpiR-family transcriptional regulator) (Listeria monocytogenes) (UniProt Q8Y3P0)
T1 sequence: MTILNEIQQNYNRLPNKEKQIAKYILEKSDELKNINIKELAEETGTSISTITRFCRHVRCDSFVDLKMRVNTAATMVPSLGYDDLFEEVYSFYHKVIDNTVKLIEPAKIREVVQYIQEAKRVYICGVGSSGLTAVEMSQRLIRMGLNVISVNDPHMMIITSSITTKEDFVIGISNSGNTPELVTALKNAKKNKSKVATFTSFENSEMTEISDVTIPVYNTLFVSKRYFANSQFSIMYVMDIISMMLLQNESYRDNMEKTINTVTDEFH
Assay: EMSA
Settings: 10 mM Tris-HCl pH 7.5, 50 mM NaCl, 10% glycerol, 5 mM EDTA, 20 mM DTT, 25 C, 20 min; 8% native PAGE in 0.5x TBE at 4 C

| Sequence | binding |
| --- | --- |
| CGGAACACCCAACAAATTACCAATCGAATAAACTAAAAAAGTCCTTTCAAACGAAAGGACTTTTTATTTTTAACAACAACGTCATTTTTTAAAGCTAGTTTCCGCAACTATCCACGCTAAAATATGAAAATCATTTTCATTTAATCGATATTGATAAAATCATTTTCTTGTGATATAGTCTGTTTGAAAACGCATACTTTACACTGAAACACAGTATAGAGGAGGAGTATCAGTGGGCAATTCTGTTATGGAAAAAATCAAAGGTGGGTTAG (double strand) [lmo2795-nanE operon upstream (promoter) region] | binds |
| CTTTAATATCCTCTAAGCCAGCATTTTTGATTTTTTTCTGTAGCACCGTCGCGCCCATTGCACTGGATCCAAGCCCCGCATCACAAGCATAGGCGATTCTTTTAACATTTTTAAAATTAAAATCATCTACTGGAGCTTCGAAAACAGAGGAAATACTACTTTTTTTGCCTTTAAGACCTTCCATTTTCTTCGCTGCATCTTG (double strand) [unspecific control, region within the lmo2795-nanE operon] | no binding |
